The target in assay [1] is T1, human 2Ig-B7H3 (B7H3-2Ig-His) (human, UniProt Q5ZPR3 29-466).
T1 construct: Recombinant His-tagged protein immobilised on a CM5 chip; also called 21g-B7H3; B7H3-21g-His; not shown: His tag
T1 sequence: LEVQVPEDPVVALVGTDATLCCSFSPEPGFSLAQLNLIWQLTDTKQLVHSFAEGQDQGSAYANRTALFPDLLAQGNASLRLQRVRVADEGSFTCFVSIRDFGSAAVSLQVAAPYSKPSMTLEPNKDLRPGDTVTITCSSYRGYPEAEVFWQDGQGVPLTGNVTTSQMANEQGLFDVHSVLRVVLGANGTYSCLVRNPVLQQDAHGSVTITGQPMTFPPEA
Put plainly: SPR, Biacore T200, 2Ig-B7H3-His on CM5 chip, 1:1 fit. (Surface plasmon resonance follows binding to a sensor surface in real time, without labels.)

The target in assay [2] is T2, human 4Ig-B7H3 (B7H3-4Ig-His) (human, UniProt Q5ZPR3 29-466).
T2 construct: Recombinant His-tagged protein immobilised on a CM5 chip; also called 41g-B7H3; human 4Ig-B7-H3 (dominant isoform); not shown: His tag
T2 sequence: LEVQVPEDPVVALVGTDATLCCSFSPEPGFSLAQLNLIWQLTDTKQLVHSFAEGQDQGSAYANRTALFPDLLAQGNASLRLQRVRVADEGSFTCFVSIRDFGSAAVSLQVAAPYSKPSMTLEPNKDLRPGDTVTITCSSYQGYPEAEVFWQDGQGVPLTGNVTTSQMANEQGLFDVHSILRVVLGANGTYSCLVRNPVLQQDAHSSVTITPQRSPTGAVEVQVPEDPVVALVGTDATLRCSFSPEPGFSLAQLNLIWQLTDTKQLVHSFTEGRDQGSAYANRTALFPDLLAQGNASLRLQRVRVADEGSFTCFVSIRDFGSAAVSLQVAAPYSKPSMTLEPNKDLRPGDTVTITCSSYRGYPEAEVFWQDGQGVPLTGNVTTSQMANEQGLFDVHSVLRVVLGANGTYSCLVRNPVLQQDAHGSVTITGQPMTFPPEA
Put plainly: SPR, Biacore T200, 4Ig-B7H3-His on CM5 chip, 1:1 fit.

The target of assay [3] is T1, human 2Ig-B7H3 (B7H3-2Ig-His). Nature of the assay: SPR, Biacore T200, 2Ig-B7H3-His on CM5 chip, 1:1 fit; * beyond fitting limits.
The target is the same in assay [4]. Nature of the assay: SPR, Biacore T200, 2Ig-B7H3-His on CM5 chip, 1:1 fit. The method, then:
(§1) Both human B7H3 41g and 21g proteins were dissolved in PBS (Phosphate-Buffered Saline) to make 0.1 mg/ml stock solution and stored in −80° C. B7-H3 proteins were immobilized onto the CM5 sensor chip using Amine Coupling Kit. Both proteins were diluted to 10 ug/ml with 10 mM Sodium acetate, pH 5.0. […] A blank immobilized surface was used as a control
(§2) Binding Assays: [0143] 1. Antibodies were diluted in HBS-EP buffer (10 mM HEPES, 150 mM NaCl, 3 mM EDTA, 0.05% Surfactant P20, pH 7.4) at varying concentrations (25-50-100-200-400 nM) prior to analysis. […] 2. Samples (60 ul) were injected over the sensor surface at a flow rate of 30 ul/min over 2 min. [0145] 3. Following completion of the association phase, dissociation was monitored in HBS-EP buffer for 10 min at the same flow rate. […] 4. At the end of each cycle, the surface was regenerated using 10 mM NaOH at a flow rate of 50 ul/min over 2×15 sec.
(§3) The data were analyzed by the 1:1 fitting model and default parameter setting for the rate constants using the Biacore T200 Evaluation Software, and the apparent association on rate constant (kon, ka), dissociation off rate constant (koff, kd) and equilibrium dissociation constant (KD=kd/ka) were calculated.
The source holds these as a separate data set.

Assay [5] addresses T2, human 4Ig-B7H3 (B7H3-4Ig-His). Nature of the assay: SPR, Biacore T200, 4Ig-B7H3-His on CM5 chip, 1:1 fit. The procedure: as §1, §2
This is another data set of the same source.

The target is the same in assay [6]. Nature of the assay: SPR. The procedure:
as §1, §3

The target of assay [7] is T1, human 2Ig-B7H3 (B7H3-2Ig-His). Put plainly: SPR. The procedure: as §1, §3
For assay [8] the target is unchanged. Nature of the assay: SPR, Biacore T200, 2Ig-B7H3-His on CM5 chip, 1:1 fit. The method, then:
as §1, §3
The source holds these as a separate data set.

Assay [9] deals with T2, human 4Ig-B7H3 (B7H3-4Ig-His). Nature of the assay: SPR, Biacore T200, 4Ig-B7H3-His on CM5 chip, 1:1 fit. The procedure:
as §1, §3
This is another data set of the same source.

Assay [10] addresses T1, human 2Ig-B7H3 (B7H3-2Ig-His). Put plainly: SPR, Biacore T200, 2Ig-B7H3-His on CM5 chip, 1:1 fit; CHX-A''-DTPA conjugate, CAR 6.1, labeled with cold 175Lu. The method, then: as §1, §2

In general, Kd refers to the concentration at which binding is half-saturated. Higher therefore signals lower affinity. A word on the kon: it is a measure of how fast the partners come together. A word on the koff: it is the rate constant with which the complex falls apart.

Changes are numbered by the printed parent chain. Where two headings read alike, the source gives them in different places.

In assay [1], 127I-Humanized-8H9-antibody came in with a Kd of 0.00212 nM, a kon of 361000 M⁻¹ s⁻¹ and a t ½ of 251 h. Besides, in [2], the equilibrium dissociation constant (Kd) came out at 0.24 nM, the koff worked out at 2.68e-05 s⁻¹, the kon worked out at 112000 M⁻¹ s⁻¹ and the t ½ was found to be 7.17 h. For the same molecule, the koff in assay [3] is 7.66e-07 s⁻¹.

B1: 8H9 antibody conjugated with p-SCN-Bn-DOTA, CAR 0.8 (antibody, mouse IgG1, kappa, V domains shown)
VH: QVQLQQSGAELVKPGASVKLSCKASGYTFTNYDINWVRQRPEQGLEWIGWIFPGDGSTQYNEKFKGKATLTTDTSSSTAYMQLSRLTSEDSAVYFCARQTTATWFAYWGQGTLVTVSA
VL: DIVMTQSPATLSVTPGDRVSLSCRASQSISDYLHWYQQKSHESPRLLIKYASQSISGIPSRFSGSGSGSDFTLSINSVEPEDVGVYYCQNGHSFPLTFGAGTKLELKR
modifications: p-SCN-Bn-DOTA conjugated, CAR 0.8 per antibody; sites not stated
notes: Chelator conjugate, not metal-labelled
Consider B1, for which, in assay [4], the affinity, expressed as Kd, was 0.166 nM and the “T ½” value was found to be 39.2 h. In [5], the dissociation constant (Kd) was determined as 5.76 nM and the “t ½” value came to 1.67 h.

B2: 175Lu-DTPA-8H9-antibody (CAR6.1) (antibody, mouse IgG1, kappa, V domains shown)
VH: B1 VH
VL: B1 VL
modifications: p-SCN-Bn-CHX-A″-DTPA conjugated (CAR 6.1 per antibody), labelled with cold lutetium-175; sites not stated
Consider B2, for which the figures for the Kd in [6], in assay [9] and in assay [10] were 34 nM, 34 nM and 7.21 nM, respectively. The t ½ in [6] came to 0.4 h; in [7], 1.82 h; in [8] it was 1.82 h; in assay [9] it was 0.4 h.

B3: 8H9 antibody conjugated with p-SCN-Bn-DOTA, CAR 2.4 (antibody, mouse IgG1, kappa, V domains shown)
VH: B1 VH
VL: B1 VL
modifications: p-SCN-Bn-DOTA conjugated, CAR 2.4 per antibody; sites not stated
notes: as for B1
B3: in assay [4], binding was put at a Kd of 0.222 nM and the “T ½” value came out at 41.1 h. Also, in assay [5], the Kd came out at 8.61 nM and the “t ½” value came out at 1.4 h.

B4: 8H9 antibody conjugated with p-SCN-Bn-DOTA, CAR 7.5 (antibody, mouse IgG1, kappa, V domains shown)
VH: B1 VH
VL: B1 VL
modifications: p-SCN-Bn-DOTA conjugated, CAR 7.5 per antibody; sites not stated
notes: as for B1
With B4, in assay [4], the Kd stood at 1.71 nM and the “T ½” value amounted to 6.58 h. Also, in [5], the Kd is 14.6 nM and the “t ½” value came to 1.03 h.

B5: hu8H9-3.1 (antibody, V domains shown)
VH: QVQLVQSGAEVVKPGASVKLSCKTSGYTFTNYDINWVRQRPGQGLEWIGWIFPGDDSTQYNEKFKGKATLTTDTSTSTAYMELSSLRSEDTAVYFCARQTTGTWFAYWGQGTLVTVSS
VL: B1 VL with D1E, T14S, D17E, S20T, H34Y, S60A, D70E, S74T, A100Q
As for B5, in [8], binding was put at a Kd of 2.22 nM, the koff worked out at 0.000102 s⁻¹, the kon came out at 45900 M⁻¹ s⁻¹ and the “t ½” value is 1.89 h. Moreover, in assay [9], the Kd stood at 8.87 nM, the koff was 0.000251 s⁻¹, the kon was determined as 28300 M⁻¹ s⁻¹ and the “t ½” value is 0.769 h.

B6: 175Lu-DOTA-8H9-antibody (CAR2.6) (antibody, mouse IgG1, kappa, V domains shown)
VH: B1 VH
VL: B1 VL
modifications: p-SCN-Bn-DOTA conjugated (CAR 2.6 per antibody), labelled with cold lutetium-175; sites not stated
As to B6, in assay [8], binding was characterised by a dissociation constant (Kd) of 1.74 nM and the “t ½” value was determined as 6.11 h. In addition, in assay [9], the Kd was found to be 15.7 nM and the “t ½” value turned out to be 0.822 h.

B7: 8H9 antibody conjugated with p-SCN-Bn-DOTA, CAR 2.6 (antibody, mouse IgG1, kappa, V domains shown)
VH: B1 VH
VL: B1 VL
modifications: p-SCN-Bn-DOTA conjugated, CAR 2.6 per antibody; sites not stated
notes: as for B1
For the molecule B7, in [4], the Kd amounted to 0.58 nM and the “T ½” value is 14 h. In addition, in assay [5], the Kd is 7.57 nM and the “t ½” value amounted to 1.42 h.

Values taken from patent US20230293738A1 (Y MABS THERAPEUTICS, published 2023).
